Measured values: patent publication US20100056764A1 (Novo Nordisk, published 2010)

Assays:
[1] = target: T1, human NKG2D (hNKG2D) on the cell surface (human, UniProt P26718 1-216); assay: cell-based or functional assay
T1 chain: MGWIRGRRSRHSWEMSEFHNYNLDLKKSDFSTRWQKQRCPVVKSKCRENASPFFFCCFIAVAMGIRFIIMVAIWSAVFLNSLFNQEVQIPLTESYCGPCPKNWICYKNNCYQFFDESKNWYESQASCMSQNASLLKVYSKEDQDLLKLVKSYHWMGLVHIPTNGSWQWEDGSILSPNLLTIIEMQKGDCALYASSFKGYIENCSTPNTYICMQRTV

[2] = target: T2, recombinant NKG2D-Fc protein (R&D Systems), immobilized on a Biacore CM5 chip (human, UniProt P26718 78-216); assay: SPR (Biacore), mean of the two NKG2D-Fc densities
T2 construct: also called NKG2D-hFc; hFc-NKG2D; not shown: Fc portion of the purchased fusion protein
T2 sequence: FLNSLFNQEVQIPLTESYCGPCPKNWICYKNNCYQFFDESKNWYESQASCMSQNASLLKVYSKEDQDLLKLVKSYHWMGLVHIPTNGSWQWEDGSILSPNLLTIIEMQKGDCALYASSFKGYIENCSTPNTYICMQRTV
Description: (§1) Protein immobilisation. […] Recombinant NKG2D-Fc proteins were immobilized covalently to carboxyl groups in the dextran layer on a Sensor Chip CM5 (Biacore GE Healthcare; BR-1000-14). The sensor chip surface was activated with EDC/NHS (N-ethyl-N′-(3-dimethylaminopropyl)carbodiimidehydrochloride and N-hydroxysuccinimide (Biacore GE Healthcare; BR-1000-50)). Proteins were diluted to 10 μg/ml in coupling buffer (10 mM acetate, pH 5.2) and injected until the appropriate immobilization level was reached (i.e. 500 to 1000 RU). Deactivation of the remaining activated groups was performed using 100 mM ethanolamine pH 8 (Biacore GE Healthcare; BR-1000-50).
(§2) Affinity measurement. […] For kinetic experiments, serial dilutions of soluble antibodies (from 0.3 to 30 nanoM) were injected for 2 min at a constant flow rate of 40 μl/min on dextran layers containing immobilized NKG2D-Fc proteins (500 to 1000 RU), and allowed to dissociate for 3 min before regeneration by a eight second injection of 500 mM NaCl and 10 mM NaOH buffer. The resulting sensorgrams were analysed by global fitting using the Langmuir model. The dissociation constant (KD) was calculated as KD=kd/ka.

[3] = target: T2, recombinant NKG2D-Fc protein (R&D …); assay: SPR (Biacore), NKG2D-Fc immobilized on CM5 chip at 600 RU, antibody in solution, Langmuir fit
Description: as §1, §2

[4] = target: T1, human NKG2D (hNKG2D) on the cell surface; assay: flow cytometry, NKG2D/DAP10 BaF/3 cells pre-incubated with antibody, then 1 µg MICA-mFc (competitor)
Description: (§3) Flow cytometry assays—MICA blockade. […] The cells were then analysed on a B&D FACSArray flow cytometer. The degree of reduction of MICA binding by preincubation was analysed as MFI (mean fluorescence intensity) of binding with pre-incubation in % of binding of MICA without preincubation.

[5] = target: T1, human NKG2D (hNKG2D) on the cell surface; assay: flow cytometry blocking assay on NKG2D/DAP10-expressing BaF/3 cells: pre-incubation with the antibody, then 1 µg MICA-mFc; y axis % remaining MICA-Fc binding
Description: as §3

B1: 16F16, fully human anti-hNKG2D monoclonal antibody, recombinantly expressed as IgG4 isotype (antibody, V domains shown)
VH: EVQLVESGGGLVKPGGSLRLSCAASGFTFSSYSMNWVRQAPGKGLEWVSSITSSSSYIYYADSVKGRFTISRDNAKNSLYLQMNSLRAEDTAVYYCARDRRYFDWFPLDYRGQGTLVTVSS
VL: DIQMTQSPSSLSASVGDRVTITCRASQGISSWLAWYQQKPEKAPKSLIYAASSLQSGVPSRFSGSGSGTDFTLTISSLQPEDFATYYCQQYNGYPYTFGQGTKLEIKR
notes: also called 16F16 IgG4; 16F16 (IgG4)
- EC50 (µg/ml), inhibition of NK cell killing of MICA-expressing target cells (51Cr release) [1]: 0.14 µg/mL
- EC50 (µg/ml), inhibition of NK cell killing of ULPB3-expressing target cells (51Cr release) [1]: 0.35 µg/mL
- Kd [2]: 0.172 nM
- Kd [3]: 0.165 nM
- Full blockade of 1 µg MICA-Fc (antibody concentration) [4]: 0.59 µg/mL
- IC50 [4]: 0.019 µg/mL
- IC50 (read off the curve) [5]: ~0.02 nM
